In test [1] the target is T1, F2 (peptide-Fc fusion derived from the extracellular domain of human CD38) (human, UniProt P0DOX5 223-449 = IgG part).
T1 construct: As F1; by count CD38 residues 56-68
The experiment in a line: SPR, human 767 antibody immobilized on the chip, peptide-Fc fusion injected. In general terms: SPR reads the build-up and loss of mass on a sensor chip optically.

Test [2] concerns the target T2, F1 (peptide-Fc fusion derived from the extracellular domain of human CD38) (human, UniProt P0DOX5 223-449 = IgG part).
T2 construct: 13-residue peptide fused to human IgG1 Fc (CH2-CH3) with an Ala-Ser linker; by count CD38 residues 43-55
The description is as above.

The target in test [3] is T3, F12 (peptide-Fc fusion derived from the extracellular domain of human CD38) (human, UniProt P0DOX5 223-449 = IgG part).
T3 construct: As F1; by count CD38 residues 186-198
The description is as above.

Test [4] deals with T4, F17 (peptide-Fc fusion derived from the extracellular domain of human CD38) (human, UniProt P0DOX5 223-449 = IgG part).
T4 construct: As F1; by count CD38 residues 251-263
The test is described as above.

Test [5] deals with T5, F15 (peptide-Fc fusion derived from the extracellular domain of human CD38) (human, UniProt P0DOX5 223-449 = IgG part).
T5 construct: As F1; by count CD38 residues 225-237
The test is described as above.

For test [6], the target named is T6, F20 (peptide-Fc fusion derived from the extracellular domain of human CD38) (human, UniProt P0DOX5 223-449 = IgG part).
T6 construct: Final peptide of 11 amino acids, else as F1; by count CD38 residues 290-300
Described as above.

Test [7] addresses T7, F13 (peptide-Fc fusion derived from the extracellular domain of human CD38) (human, UniProt P0DOX5 223-449 = IgG part).
T7 construct: As F1; by count CD38 residues 199-211
The description is as above.

The target of test [8] is T8, soluble extracellular region of cynomolgus monkey CD38 antigen fused to a 6-His-tag (cynomolgus monkey, UniProt Q5VAN0 45-301).
T8 construct: also called cynomolgus CD38
The experiment in a line: SPR.

Test [9] deals with T9, F3 (peptide-Fc fusion derived from the extracellular domain of human CD38) (human, UniProt P0DOX5 223-449 = IgG part).
T9 construct: As F1; by count CD38 residues 69-81; also called F3 construct
The experiment in a line: SPR, antibody immobilized on the chip, peptide-Fc fusion injected (1000 nM per paragraph 238).

For test [10], the target named is T10, F8 (peptide-Fc fusion derived from the extracellular domain of human CD38) (human, UniProt P0DOX5 223-449 = IgG part).
T10 construct: As F1; by count CD38 residues 134-146
The experiment in a line: SPR, antibody immobilized, peptide-Fc fusion injected.

Test [11] concerns the target T11, F19 (peptide-Fc fusion derived from the extracellular domain of human CD38) (human, UniProt P0DOX5 223-449 = IgG part).
T11 construct: As F1; by count CD38 residues 277-289
Described as above.

The target in test [12] is T12, F11 (peptide-Fc fusion derived from the extracellular domain of human CD38) (human, UniProt P0DOX5 223-449 = IgG part).
T12 construct: As F1; by count CD38 residues 173-185
The test is described as above.

Test [13] concerns the target T13, F4 (peptide-Fc fusion derived from the extracellular domain of human CD38) (human, UniProt P0DOX5 223-449 = IgG part).
T13 construct: As F1; by count CD38 residues 82-94
Described as above.

For test [14], the target named is T14, F16 (peptide-Fc fusion derived from the extracellular domain of human CD38) (human, UniProt P0DOX5 223-449 = IgG part).
T14 construct: As F1; by count CD38 residues 238-250
The description is as above.

Test [15] addresses T15, F14 (peptide-Fc fusion derived from the extracellular domain of human CD38) (human, UniProt P0DOX5 223-449 = IgG part).
T15 construct: As F1; by count CD38 residues 212-224
The description is as above.

For test [16], the target named is T16, F6 (peptide-Fc fusion derived from the extracellular domain of human CD38) (human, UniProt P0DOX5 195-449 = IgG part).
T16 construct: As F1; by count CD38 residues 108-120 (holds M110)
Described as above.

Test [17] addresses T17, F9 (peptide-Fc fusion derived from the extracellular domain of human CD38) (human, UniProt P0DOX5 223-449 = IgG part).
T17 construct: As F1; by count CD38 residues 147-159
The description is as above.

Test [18] concerns the target T18, F18 (peptide-Fc fusion derived from the extracellular domain of human CD38) (human, UniProt P0DOX5 223-449 = IgG part).
T18 construct: As F1; by count CD38 residues 264-276
The test is described as above.

The target in test [19] is T19, F7 (peptide-Fc fusion derived from the extracellular domain of human CD38) (human, UniProt P0DOX5 223-449 = IgG part).
T19 construct: As F1; by count CD38 residues 121-133
Described as above.

Test [20] addresses T20, F5 (peptide-Fc fusion derived from the extracellular domain of human CD38) (human, UniProt P0DOX5 223-449 = IgG part).
T20 construct: As F1; by count CD38 residues 95-107
The test is described as above.

In test [21] the target is T21, F10 (peptide-Fc fusion derived from the extracellular domain of human CD38) (human, UniProt P0DOX5 223-449 = IgG part).
T21 construct: As F1; by count CD38 residues 160-172
Described as above.

Test [22] deals with T22, soluble extracellular region of human CD38 fused to a 6-His-tag (human, UniProt P28907 43-300).
T22 construct: Expressed with the murine VJ2C leader; also called human CD38 protein; human CD38 antigen
The experiment in a line: SPR, equilibrium response, antibody captured on protein G.

B1: human 767 antibody (antibody, human IgG1, kappa, V domains shown)
VH: QVQLVESGGGLVQPGGSLRLSCAASGFTFSSYWMSWVRQAPGKGLEWVANIKQDGSEKYYVDSVKGRFTISRDNAKNSLYLQMNSLRAEDTAVYYCAREGRTGYFDYWGQGTLVTVSS
VL: QSVLTQPPSASGTPGQRVTISCSGSTSNIGTNYVYWYQQLPGTAPKLLIYRNDQRPSGVPDRFSGSKSGTSASLAISGLRSEDEADYYCAAWDDSRSGVYAFGTGTKVTVLR
notes: Human IgG1
Regarding B1, the binding result in [1], in [2], in test [3], in test [4], in test [5] and in test [6] was “no binding” each time. Besides, the binding result was “no binding” in [7]; “binds” in test [9]; “no binding (tested: 1000 nM)” in test [10]; “no binding (tested: 1000 nM)” in test [11]; “no binding (tested: 1000 nM)” in test [12]; “no binding (tested: 1000 nM)” in test [13]. In addition, the binding result in test [14], in [15], in test [16], in test [17], in test [18] and in test [19] was “no binding (tested: 1000 nM)” each time. Besides, the binding result in [20] and in test [21] was “no binding (tested: 1000 nM)” each time. Also, the values for the Kd in [8] and in test [22] were around 1200 nM and around 300 nM, respectively.

Broadly, the Kd is a measure of binding affinity in units of concentration.
